Legend:
[1] = tryptophan fluorescence, urea dissociation of peptide complexes, 5 µM peptide
[2] = tryptophan fluorescence, urea dissociation of peptide complexes, 25 µM peptide

## delta-haemolysin
[1]
  midpoint of the unfolding curve: The midpoints of the unfolding curves of 5 µM and 25 µM were 2.14 and 3.20M urea
[2]
  midpoint of the unfolding curve: The midpoints of the unfolding curves of 5 µM and 25 µM were 2.14 and 3.20M urea
